# Columns and labels:
# Assay type in all cases: binding
# [1] = biological target: T1, VDR (LBD of human Vitamin D receptor) (Homo sapiens, UniProt P11473); assay: Yeast two-hybrid interaction with VDR; settings: β-galactosidase ONPG assay, 1 μM ligand or vehicle
# T1 construct: VDR (LBD of human Vitamin D receptor); expressed in transfected cells; host or cells: Saccharomyces cerevisiae Y190
# T1 sequence (P11473 127-423 limits assumed): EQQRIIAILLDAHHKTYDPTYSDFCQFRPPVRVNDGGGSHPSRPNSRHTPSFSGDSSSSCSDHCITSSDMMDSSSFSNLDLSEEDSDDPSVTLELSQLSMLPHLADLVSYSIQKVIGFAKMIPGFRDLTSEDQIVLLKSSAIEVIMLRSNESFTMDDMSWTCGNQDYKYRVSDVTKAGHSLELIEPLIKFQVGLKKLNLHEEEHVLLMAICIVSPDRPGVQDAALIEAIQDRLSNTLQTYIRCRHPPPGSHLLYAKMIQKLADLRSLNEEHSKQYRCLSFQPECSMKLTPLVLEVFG
# T1 sequence (Q9Y6Q9 401-1204 E704Q partner limits assumed): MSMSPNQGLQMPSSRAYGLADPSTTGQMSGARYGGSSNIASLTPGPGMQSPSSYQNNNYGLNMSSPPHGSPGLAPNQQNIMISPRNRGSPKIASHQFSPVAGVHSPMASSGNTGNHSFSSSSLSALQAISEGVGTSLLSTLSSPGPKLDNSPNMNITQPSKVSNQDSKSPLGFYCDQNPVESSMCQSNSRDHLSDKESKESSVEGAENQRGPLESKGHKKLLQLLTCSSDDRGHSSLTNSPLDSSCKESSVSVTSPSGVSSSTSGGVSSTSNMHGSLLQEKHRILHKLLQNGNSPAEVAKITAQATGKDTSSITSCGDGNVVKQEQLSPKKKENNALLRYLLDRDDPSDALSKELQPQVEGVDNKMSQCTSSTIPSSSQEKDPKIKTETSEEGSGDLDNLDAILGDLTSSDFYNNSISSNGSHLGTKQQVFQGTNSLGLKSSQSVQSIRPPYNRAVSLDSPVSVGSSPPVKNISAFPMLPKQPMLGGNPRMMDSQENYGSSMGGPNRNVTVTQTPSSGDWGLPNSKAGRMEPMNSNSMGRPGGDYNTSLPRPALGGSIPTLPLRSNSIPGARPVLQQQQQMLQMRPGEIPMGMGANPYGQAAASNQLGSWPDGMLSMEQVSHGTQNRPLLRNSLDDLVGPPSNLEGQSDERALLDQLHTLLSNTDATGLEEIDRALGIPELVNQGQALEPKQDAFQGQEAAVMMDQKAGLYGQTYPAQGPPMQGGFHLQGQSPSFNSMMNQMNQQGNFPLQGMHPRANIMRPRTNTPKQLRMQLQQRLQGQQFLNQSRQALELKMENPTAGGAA
# Description: (§1) The protein—protein interactions between RAC3 and several steroid/nuclear receptors were analyzed by the yeast two-hybrid system. The original two-hybrid clone, RAC3.1 in pGAD10 vector, was retransformed together with yeast expression vectors for Gal4 DBD fusion of selected hormone receptor genes into Y190 cells. The receptors used include RAR (full-length hRARα), RXR (full-length hRXRα), VDR (LBD of human Vitamin D receptor), PPAR (LBD of mPPARα), TR (LBD) of hTRβ), COUP (LBD of COUP-TFI). Three independent colonies from each transformation were selected and analyzed for expression of […] activities by liquid ONPG assay (FIG. 6) after treatment with 1 μM of corresponding ligands (closed bars), or with equal concentration of vehicle alone (open bars). […] The ligands used in these experiments were atRA, VitD3 (1,25-dihydroxyvitamin D3), and Wy (Wy 14,642). […] In the absence of ligand, RAC3 can interact with RAR and PPAR.
# TR (LBD) of hTRβ = biological target: T2, TR (LBD) of hTRβ (Homo sapiens, UniProt P10828); assay: Yeast two-hybrid interaction with TR; settings: β-galactosidase ONPG assay, 1 μM ligand or vehicle
# T2 construct: TR (LBD) of hTRβ); expressed in transfected cells; host or cells: Saccharomyces cerevisiae Y190
# T2 sequence (P10828 217-461 limits assumed): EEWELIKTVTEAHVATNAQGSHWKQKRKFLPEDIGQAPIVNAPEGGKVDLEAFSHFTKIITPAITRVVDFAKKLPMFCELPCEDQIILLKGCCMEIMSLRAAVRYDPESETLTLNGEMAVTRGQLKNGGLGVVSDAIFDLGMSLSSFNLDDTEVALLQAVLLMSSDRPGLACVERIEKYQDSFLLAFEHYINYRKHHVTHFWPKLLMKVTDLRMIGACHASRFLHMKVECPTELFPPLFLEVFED
# T2 sequence (Q9Y6Q9 401-1204 E704Q partner limits assumed): T1 sequence (Q9Y6Q9 401-1204 E704Q partner limits assumed)
# Description: as §1
# CBP = assay: Far-Western analysis of interaction with GST-CBP fusions; settings: 35S-labeled full-length RAC3
# Description: GST fusion proteins were overexpressed and purified from DH5α cells on glutathione agarose beads. The fusion proteins were separated on denaturing protein gels (SDS-PAGE) and electroblotted onto nitrocellulose filters in a transfer buffer (25 mM Tris-HCl, pH 8.3; 192 mM glycine; 0.01% SDS). After denaturation in 6 M guanidine hydrochloride (GnHCl), the proteins were renatured by stepwise dilution of GnHCl to 0.187 M in HB buffer (25 mM Hepes, pH 7.7; 25 mM NaCl; 5 mM MgC12; 1 mM DTT). The filters were then saturated with blocking buffer (5% non-fat milk, then 1% milk in HB buffer plus 0.05% NP40) at 4° C. overnight. In vitro translated 35S-labeled proteins were generated in reticulocyte lysate (Promega) and were diluted into a hybridization buffer (20 mM Hepes, pH 7.7; 75 mM KCl; 0.1 mM EDTA; 2.5 mM MgC12; 0.05% NP40; 1% milk; 1 mM DTT). […] The bound 35S-labeled proteins were detected by autoradiography.
# Since SRC-1 can interact with the general transcriptional coactivator CBP and p300 (Yao, T. P., et al. (1996) Proc Natl Acad Sci USA 93, 10626–31.), it was determined whether RAC3 can also interact with CBP by far-Western analyses. Serial GST-CBP fusions covering the SRC-1 interacting domain were analyzed for interactions with ^35S-labeled full-length RAC3, SRC-1 and RAC3-AD (FIGS. 3A, B and C). […]
substance,measurement,setting,value
"RAC3: transcriptional coactivator of steroid/nuclear receptors, protein of about 1417 amino acids (SEQ ID NO:2); RAC3.1 is the two-hybrid clone, amino acids 401–1204",interaction with VDR,[1],ligand-dependent manner
same,interaction with TR,TR (LBD) of hTRβ,ligand-dependent manner
same,interaction with CBP fragments C and D,CBP,interacts strongly

# From patent US7132258B1, “Nucleic acid encoding vitamin D receptor related polypeptide” (University of Massachusetts, priority 1998, dated 2006)
